According to US7098025B1, “Human peroxisome proliferator activated receptor gamma (pparγ) gene regulatory sequences and uses therefor” (Ligand Pharmaceuticals Incorporated, priority 1997, dated 2006):
One block for each molecule: values may come before it.

What was measured:
[1] = biological target: T1, PPARγ (Oryctolagus cuniculus, UniProt O19052); assay: J3-TK-LUC PPRE-driven luciferase reporter in RK-13 cells; assay type: cell-based, rabbit
T1 construct: endogenous in cells; host or cells: RK-13 (rabbit kidney, ATCC)
T1 sequence (O19052 1-475): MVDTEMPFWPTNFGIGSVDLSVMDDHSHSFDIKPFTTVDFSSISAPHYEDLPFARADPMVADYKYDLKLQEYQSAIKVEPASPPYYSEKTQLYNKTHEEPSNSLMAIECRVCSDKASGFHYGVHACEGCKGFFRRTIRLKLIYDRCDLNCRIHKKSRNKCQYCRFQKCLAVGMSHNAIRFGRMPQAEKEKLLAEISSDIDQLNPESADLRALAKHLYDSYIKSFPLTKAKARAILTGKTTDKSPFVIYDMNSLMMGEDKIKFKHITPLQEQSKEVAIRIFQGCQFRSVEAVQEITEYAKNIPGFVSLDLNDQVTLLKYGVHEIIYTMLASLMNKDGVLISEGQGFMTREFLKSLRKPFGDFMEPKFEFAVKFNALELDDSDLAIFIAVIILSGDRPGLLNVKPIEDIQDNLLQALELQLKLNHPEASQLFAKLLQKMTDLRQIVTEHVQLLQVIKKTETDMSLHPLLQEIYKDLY
Method: Next we wanted to assess whether the above-mentioned changes in PPARγ expression were associated with changes in the capabilities of PPARγ to transactivate. A PPRE-driven luciferase reporter gene, containing three copies of the apo A-II J site (Vu-Dac et al., 1995), ie. J3-TK-LUC, was transfected into rabbit kidney-derived RK-13 cells and half of the cells were maintained in cholesterol-depleted medium whereas the other half was grown in the same medium supplemented with a mixture of cholesterol and 25-hydroxycholesterol.
Site-directed mutagenesis of the E-box in the PPARγ3 promoter was performed by splicing overlapping ends polymerase chain reaction (Ho, et al., Gene 77:51–59 (1989)), using the oligo pairs LF-106/LF-60 and LF-107/LF-68, to generate the plasmid pGL3γ3p800-E-boxmut. This changed the three bases underlined in the sequence 5′-[…]-3′ to 5′-[…]-3′ (SEQ ID NOS: 41 and 42, respectively. The J3-TK-LUC (Vu-Dac et al., 1995) and ACO-TK-LUC (Osumi et al., Biophys. Res. Commun. 175:866–871 (1991)) luciferase reporter vectors and the expression vectors encoding for ADD-1, a dominant negative form of ADD-1, and SREBP-1a (Tontonoz et al., Mol. Cell. Biol. 13:4753–4759 (1993)); Yokoyama et al., Cell 75:187–197 (1993)) were described before. […]

[2] = biological target: T2, hPPARγ2, in vitro transcribed/translated protein (human, UniProt P37231 1-505); assay: EMSA with in vitro translated proteins on the apoA-II J site PPRE oligonucleotide; heterodimer complex on DNA
T2 construct: PPARγ2 isoform, with the additional N-terminal amino acids encoded by exon B; also called human PPARγ2
T2 sequence (looked up): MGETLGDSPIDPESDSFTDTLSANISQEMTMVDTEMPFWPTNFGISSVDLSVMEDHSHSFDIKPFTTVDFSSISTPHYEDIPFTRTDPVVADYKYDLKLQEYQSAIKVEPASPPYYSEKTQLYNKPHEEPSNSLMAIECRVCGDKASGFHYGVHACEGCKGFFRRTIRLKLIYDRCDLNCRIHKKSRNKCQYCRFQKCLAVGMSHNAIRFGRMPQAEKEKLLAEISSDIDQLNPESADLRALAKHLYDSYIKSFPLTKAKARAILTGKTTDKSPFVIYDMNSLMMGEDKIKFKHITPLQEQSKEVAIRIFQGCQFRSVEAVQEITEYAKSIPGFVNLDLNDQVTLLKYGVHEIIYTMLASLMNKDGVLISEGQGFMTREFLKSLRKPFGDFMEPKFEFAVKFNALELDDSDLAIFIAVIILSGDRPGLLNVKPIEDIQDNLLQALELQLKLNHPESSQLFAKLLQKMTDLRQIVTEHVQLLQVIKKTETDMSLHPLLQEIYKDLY
Method: To analyze whether PPARγ could bind to a PPRE, classically composed of direct repeats spaced by one intervening nucleotide (DR-1), EMSA was performed using in vitro transcribed/translated PPARγ2 protein. An oligonucleotide containing a high affinity PPRE, previously identified in the apoA-II promoter J site, was used in EMSA (29).
7. Electrophoretic Mobility Shift Assays (EMSA) and Oligonucleotide Sequences haPPARγ (39), hPPARγ2, and mRXRα (40) proteins were synthesized in vitro in rabbit reticulocyte lysate (Promega). Molecular weights and quality of the in vitro translated proteins were verified by SDS-PAGE. PPAR (2 μl) and/or RXR (2 μl) were incubated for 15 min on ice in a total volume of 20 μl with 1-ng probe, 2.5 μg of poly(dI-dC) and 1 μg of herring sperm DNA in binding buffer (10 mM Tris-HCl pH 7.9, 40 mMKCl, 10% glycerol, 0.05% Nonidet P-40, and 1 mM dithiothreitol). For competition experiments, increasing amounts (from 10- to 200-fold molar excess) of cold oligonucleotide (AII-J-PPRE, 5'-[…]-3' (41) SEQ ID NO: 24; acyl-CoA oxidase (ACO)-PPRE, 5'-[…]-3' (42) SEQ ID NO: 25; or LPL-PPRE, 5'-[…]-3 (23) SEQ ID NO: 26; were included just before adding T4-PNK end-labeled AII-J-PPRE oligonucleotide. DNA-protein complexes were separated by electrophoresis on a 4% polyacrylamide gel in 0.25×TBE buffer at 4° C. (43).

[3] = biological target: T3, ADD-1 (UniProt P56720-1 P56720-1:1-1110); assay: cell_activity; pGL3gamma3p800 luciferase reporter, Hep G2; details: tags: expression vector, Hep G2 cells
T3 sequence: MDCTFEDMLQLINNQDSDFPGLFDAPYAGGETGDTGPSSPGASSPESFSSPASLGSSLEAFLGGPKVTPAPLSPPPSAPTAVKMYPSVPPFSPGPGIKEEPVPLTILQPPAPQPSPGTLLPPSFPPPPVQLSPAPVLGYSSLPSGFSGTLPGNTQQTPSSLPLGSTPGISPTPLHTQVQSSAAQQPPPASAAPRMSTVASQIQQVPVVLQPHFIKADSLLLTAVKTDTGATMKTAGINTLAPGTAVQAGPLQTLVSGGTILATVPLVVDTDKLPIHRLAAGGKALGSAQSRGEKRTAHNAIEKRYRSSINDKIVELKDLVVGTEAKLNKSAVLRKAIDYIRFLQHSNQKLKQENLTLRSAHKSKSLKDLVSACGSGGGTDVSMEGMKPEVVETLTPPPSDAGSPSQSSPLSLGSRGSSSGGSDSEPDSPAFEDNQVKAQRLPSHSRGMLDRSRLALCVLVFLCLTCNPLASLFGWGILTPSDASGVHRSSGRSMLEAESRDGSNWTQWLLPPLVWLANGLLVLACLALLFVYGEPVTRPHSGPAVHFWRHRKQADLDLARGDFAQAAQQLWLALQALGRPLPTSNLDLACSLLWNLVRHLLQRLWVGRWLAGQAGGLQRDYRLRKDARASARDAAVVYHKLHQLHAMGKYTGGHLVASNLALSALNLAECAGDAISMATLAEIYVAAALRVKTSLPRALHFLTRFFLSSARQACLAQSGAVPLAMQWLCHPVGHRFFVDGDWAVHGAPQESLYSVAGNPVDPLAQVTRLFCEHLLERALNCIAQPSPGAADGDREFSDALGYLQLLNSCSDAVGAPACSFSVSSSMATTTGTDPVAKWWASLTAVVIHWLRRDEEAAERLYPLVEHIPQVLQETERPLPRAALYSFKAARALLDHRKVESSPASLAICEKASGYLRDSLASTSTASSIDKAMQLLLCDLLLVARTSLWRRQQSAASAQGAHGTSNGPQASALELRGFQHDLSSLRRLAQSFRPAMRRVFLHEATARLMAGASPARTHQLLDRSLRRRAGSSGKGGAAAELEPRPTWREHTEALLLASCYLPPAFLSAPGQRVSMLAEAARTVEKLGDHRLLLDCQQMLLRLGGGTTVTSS
From the text: To assess whether ADD-1 regulates the expression of the hPPARγ3 mRNA, we cotransfected either an expression plasmid coding for ADD-1 together with the pGL3γ3p800 luciferase reporter vector.

[4] = system: PPARγ mRNA; assay: RNase protection assay of PPARγ mRNA in retrovirally infected 3T3-L1 cells; assay type: cell-based, mouse; details: 3T3-L1 preadipocytes and adipocytes; retroviral ectopic expression
Method: To study the effects of ADD-1 on PPARγ expression in more detail, either an empty retroviral vector pBabe or the same vector encoding for full length ADD-1 or the superactive ADD-1-403 form were introduced into 3T3-L1 cells via retroviral infection. […] Infected cells were then cultured to confluence and consecutively treated with differentiation medium. Total RNA was isolated at confluence (preadipocytes) and at day 6 after confluence (adipocytes) from the cells expressing either the empty pBabe vector or the same vector encoding for ADD-1 or ADD-1-403, a truncated form of ADD-1, equivalent to the proteolytically activated protein, which lacks the membrane anchoring domain. […] The effect of retroviral infection was more pronounced in 3T3-L1 adipocytes relative to preadipocytes.
Control cells received vehicle only.
The absolute mRNA concentration of the differentially spliced PPARγ variants was measured by RNase protection assay exactly as described (Lemberger et al., J. Biol. Chem. 271:1764–1769 (1995)). The full lenght PPARγ2 coding region plus 33 bp of the 5′ UTR was amplified from human adipose tissue RNA by RT-PCR with the primer pair LF-3/LF-36 and was inserted in the inverted orientation (3′ to 5′ in front of the T7 promoter) into the EcoRI site of the expression vector pSG5 (Stratagene, La Jolla, Calif.). […]

B2: PPARgamma3 E-box (LF-102; core printed) (dsDNA)
DNA 1: ATTCATGTGACAT
DNA 2: ATGTCACATGAAT
activity [3]: ≥ 4 fold

B3: ADD-1-403: truncated superactive form of ADD-1 lacking the membrane anchoring domain, equivalent to the proteolytically activated protein (protein, UniProt P56720 1-403, looked up, fragment)
chain: MDELPFGEAALEQALAEVCEMDAALLTDIEDMLQLINNQDSDFPGLFDAPYAGGETGDTGPSSPGASSPESFSSPASLGSSLEAFLGGPKVTPAPLSPPPSAPTAVKMYPSVPPFSPGPGIKEEPVPLTILQPPAPQPSPGTLLPPSFPPPPVQLSPAPVLGYSSLPSGFSGTLPGNTQQTPSSLPLGSTPGISPTPLHTQVQSSAAQQPPPASAAPRMSTVASQIQQVPVVLQPHFIKADSLLLTAVKTDTGATMKTAGINTLAPGTAVQAGPLQTLVSGGTILATVPLVVDTDKLPIHRLAAGGKALGSAQSRGEKRTAHNAIEKRYRSSINDKIVELKDLVVGTEAKLNKSAVLRKAIDYIRFLQHSNQKLKQENLTLRSAHKSKSLKDLVSACGSGGGT
expression of PPARγ mRNA [4]: significantly more active

Second part, led by results:

promoter activity of J3-TK-LUC reporter ([1]; increasing amounts of ligand, cholesterol-depleted or supplemented medium): dose-dependent activation
Molecule: CN(CCOc1ccc(CC2SC(=O)NC2=O)cc1)c1ccccn1 (centres unmarked) [BRL 49,653]
J3-TK-LUC reporter activation under cholesterol depletion versus supplemented medium ([1]; cholesterol-depleted medium): activated to a significantly higher level

binding result [2]: binds
B1: mRXRα, in vitro translated protein (receptor, mouse, UniProt P28700 1-467, looked up)
chain: MDTKHFLPLDFSTQVNSSSLNSPTGRGSMAVPSLHPSLGPGIGSPLGSPGQLHSPISTLSSPINGMGPPFSVISSPMGPHSMSVPTTPTLGFGTGSPQLNSPMNPVSSTEDIKPPLGLNGVLKVPAHPSGNMASFTKHICAICGDRSSGKHYGVYSCEGCKGFFKRTVRKDLTYTCRDNKDCLIDKRQRNRCQYCRYQKCLAMGMKREAVQEERQRGKDRNENEVESTSSANEDMPVEKILEAELAVEPKTETYVEANMGLNPSSPNDPVTNICQAADKQLFTLVEWAKRIPHFSELPLDDQVILLRAGWNELLIASFSHRSIAVKDGILLATGLHVHRNSAHSAGVGAIFDRVLTELVSKMRDMQMDKTELGCLRAIVLFNPDSKGLSNPAEVEALREKVYASLEAYCKHKYPEQPGRFAKLLLRLPALRSIGLKCLEHLFFFKLIGDTPIDTFLMEMLEAPHQAT
notes: also called mouse retinoid X receptor alpha
